# B1: Hammerhead Ribozyme (parent)
# chain: ACCGGAUGUGCUUUCCGGUCUGAUGAGUCCGUGAGGACGAAACAG
# Variants of: B1
# Experiment: self-cleavage, relative activity (ratio to wild type); higher = more cleavage; co-transcriptional
row,Variant,self-cleavage
1,ACCGGAUGUGCUGUCCGGCCUGAUGAGUCCGUGAGGACGAAACAG [U13G U19C],0.767
2,ACCGGAUGUGCUGUCCGGGCUGAUGAGUCCGUGAGGACGAAACAG [U13G U19G],0.314
3,ACCGGAUGUGCUGUCCGGACUGAUGAGUCCGUGAGGACGAAACAG [U13G U19A],0.301
4,ACCGGAUGUGCUGUCCGGUCUUAUGAGUCCGUGAGGACGAAACAG [U13G G22U],0.306
5,ACCGGAUGUGCUGUCCGGUCUCAUGAGUCCGUGAGGACGAAACAG [U13G G22C],0.315
6,ACCGGAUGUGCUGUCCGGUCUAAUGAGUCCGUGAGGACGAAACAG [U13G G22A],0.383
7,ACCGGAUGUGCUUACCGGUCUGAUGAGUCCGUGAGGAAGAAACAG [U14A C38A],0.54
8,ACCGGAUGUGCUUACCGGUCUGAUGAGUCCGUGAGGAGGAAACAG [U14A C38G],0.574
9,ACCGGAUGUGCUUACCGGUCUGAUGAGUCCGUGAGGAUGAAACAG [U14A C38U],0.926
10,ACCGGAUGUGCUUACCGGUCUGAUGAGUCCGUGCGGACGAAACAG [U14A A34C],1.05
11,ACCGGAUGUGCUUACCGGUCUGAUGAGUCCGUGGGGACGAAACAG [U14A A34G],0.73
12,ACCGGAUGUGCUUACCGGUCUGAUGAGUCCGUGUGGACGAAACAG [U14A A34U],0.903
13,ACCGGAUGUGCUGUCCGGUCUGAUGAGUCCGUGAGGACCAAACAG [U13G G39C],0.396
14,ACCGGAUGUGCUGUCCGGUCUGAUGAGUCCGUGAGGACUAAACAG [U13G G39U],0.299
15,ACCGGAUGUGCUGUCCGGUCUGAUGAGUCCGUGAGGACAAAACAG [U13G G39A],0.332
16,ACCGGAUGUGCUUACCGGUUUGAUGAGUCCGUGAGGACGAAACAG [U14A C20U],0.398
17,ACCGGAUGUGCUUACCGGUAUGAUGAGUCCGUGAGGACGAAACAG [U14A C20A],0.44
18,ACCGGAUGUGCUUACCGGUGUGAUGAGUCCGUGAGGACGAAACAG [U14A C20G],0.346
19,ACCGGAUGUGCUGUCCGGUCUGAGGAGUCCGUGAGGACGAAACAG [U13G U24G],0.654

row,Variant,self-cleavage
1,ACCGGAUGUGCUGUCCGGUCUGAAGAGUCCGUGAGGACGAAACAG [U13G U24A],1.36
2,ACCGGAUGUGCUGUCCGGUCUGACGAGUCCGUGAGGACGAAACAG [U13G U24C],0.83
3,ACCGGAUGUGCUUACCGGUCUGAUCAGUCCGUGAGGACGAAACAG [U14A G25C],0.288
4,ACCGGAUGUGCUUACCGGUCUGAUUAGUCCGUGAGGACGAAACAG [U14A G25U],0.297
5,ACCGGAUGUGCUUACCGGUCUGAUAAGUCCGUGAGGACGAAACAG [U14A G25A],0.28
6,ACCGGAUGUGCUUACCGGUCUGAUGAGUCCGUGAGGACGAUACAG [U14A A41U],0.296
7,ACCGGAUGUGCUUACCGGUCUGAUGAGUCCGUGAGGACGACACAG [U14A A41C],0.302
8,ACCGGAUGUGCUUACCGGUCUGAUGAGUCCGUGAGGACGAGACAG [U14A A41G],0.28
9,ACCGGAUGUGCUUACGGGUCUGAUGAGUCCGUGAGGACGAAACAG [U14A C16G],0.403
10,ACCGGAUGUGCUUACUGGUCUGAUGAGUCCGUGAGGACGAAACAG [U14A C16U],0.798
11,ACCGGAUGUGCUUACAGGUCUGAUGAGUCCGUGAGGACGAAACAG [U14A C16A],0.592
12,ACCGGAUGUGCUGUCCGGUCUGAUGAGUCCGUGAGUACGAAACAG [U13G G36U],0.658
13,ACCGGAUGUGCUGUCCGGUCUGAUGAGUCCGUGAGAACGAAACAG [U13G G36A],0.628
14,ACCGGAUGUGCUGUCCGGUCUGAUGAGUCCGUGAGCACGAAACAG [U13G G36C],0.709
15,ACCGGAUGUGCUGUCCGGUCUGAUGAGUCCGGGAGGACGAAACAG [U13G U32G],0.74
16,ACCGGAUGUGCUGUCCGGUCUGAUGAGUCCGAGAGGACGAAACAG [U13G U32A],1.01
17,ACCGGAUGUGCUGUCCGGUCUGAUGAGUCCGCGAGGACGAAACAG [U13G U32C],0.986
18,ACCGGAUGUGCUGUCCGGUCUGAUGAGUCCGUCAGGACGAAACAG [U13G G33C],1.06
19,ACCGGAUGUGCUGUCCGGUCUGAUGAGUCCGUAAGGACGAAACAG [U13G G33A],0.959

row,Variant,self-cleavage
1,ACCGGAUGUGCUGUCCGGUCUGAUGAGUCCGUUAGGACGAAACAG [U13G G33U],0.801
2,ACCGGAUGUGCUUACCGGUCUGUUGAGUCCGUGAGGACGAAACAG [U14A A23U],0.272
3,ACCGGAUGUGCUUACCGGUCUGGUGAGUCCGUGAGGACGAAACAG [U14A A23G],0.351
4,ACCGGAUGUGCUUACCGGUCUGCUGAGUCCGUGAGGACGAAACAG [U14A A23C],0.345
5,ACCGGAUGUGCUUAUCGGUCUGAUGAGUCCGUGAGGACGAAACAG [U14A C15U],0.994
6,ACCGGAUGUGCUUAACGGUCUGAUGAGUCCGUGAGGACGAAACAG [U14A C15A],1.09
7,ACCGGAUGUGCUUAGCGGUCUGAUGAGUCCGUGAGGACGAAACAG [U14A C15G],0.722
8,ACCGGAUGUGCUUACCGGUCUGAUGUGUCCGUGAGGACGAAACAG [U14A A26U],0.65
9,ACCGGAUGUGCUUACCGGUCUGAUGCGUCCGUGAGGACGAAACAG [U14A A26C],0.47
10,ACCGGAUGUGCUUACCGGUCUGAUGGGUCCGUGAGGACGAAACAG [U14A A26G],0.343
11,ACCGGAUGUGCUUACCGGUCUGAUGAGUCCCUGAGGACGAAACAG [U14A G31C],1.01
12,ACCGGAUGUGCUUACCGGUCUGAUGAGUCCUUGAGGACGAAACAG [U14A G31U],1.31
13,ACCGGAUGUGCUUACCGGUCUGAUGAGUCCAUGAGGACGAAACAG [U14A G31A],0.81
14,ACCGGAUGUGCUUACCGAUCUGAUGAGUCCGUGAGGACGAAACAG [U14A G18A],0.327
15,ACCGGAUGUGCUUACCGCUCUGAUGAGUCCGUGAGGACGAAACAG [U14A G18C],0.456
16,ACCGGAUGUGCUUACCGUUCUGAUGAGUCCGUGAGGACGAAACAG [U14A G18U],0.644
17,ACCGGAUGUGCUUACCGGUCUAAUGAGUCCGUGAGGACGAAACAG [U14A G22A],0.36
18,ACCGGAUGUGCUUACCGGUCUCAUGAGUCCGUGAGGACGAAACAG [U14A G22C],0.327
19,ACCGGAUGUGCUUACCGGUCUUAUGAGUCCGUGAGGACGAAACAG [U14A G22U],0.331

# From the RNAGym collection of RNA variant scans (doi:10.7554/elife.80360)
